Among the data in doi:10.1101/2024.10.05.616753 are stoichiometry N values, retold here.

The target of this assay is T1, recombinant human C-reactive protein (human), P02741.
T1 chain: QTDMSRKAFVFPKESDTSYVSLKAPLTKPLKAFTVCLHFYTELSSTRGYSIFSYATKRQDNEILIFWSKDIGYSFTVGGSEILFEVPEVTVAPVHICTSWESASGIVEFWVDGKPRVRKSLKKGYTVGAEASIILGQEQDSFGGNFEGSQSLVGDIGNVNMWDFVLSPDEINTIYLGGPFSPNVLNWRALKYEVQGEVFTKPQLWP
Nature of the assay: cryo-EM structure. Particulars: remark: other sources report otherwise.

B1: recombinant human C-reactive protein, P02741-1 19-224 (natural protein)
chain: T1 chain
For B1, the stoichiometry N (as a rule, the number of molecules, sites or subunits per partner or assembly) stood at 5.
